Molecular target: human BKCa channel α-subunit (hSlo1), residues 1-1,114 (human)
Experiment: cryo-EM structure; purified tetrameric channel (5.5 mg/ml, 44 μM) in 20 mM Tris-HCl pH 8.0, 450 mM KCl, 10 mM CaCl2, 10 mM MgCl2, 0.01% glyco-diosgenin, POPE/POPC/POPA, mixed with 1 mM CTIBD on ice for 30 min; C1 and C4 symmetry

- stoichiometry N: 4
Substance: human BKCa channel α-subunit (hSlo1), residues 1-1,114 (natural protein)
